# Measurements taken from patent US20090186816.
# Columns and labels:
# [1] = test system: F-ZFPcont-meth-NES (ZFPcont fused to human DNMT3a catalytic domain residues 592-909) (synthetic construct); assay: cell_activity; conditions: NARP cells; scale: fold lower CpG methylation than F-ZFPNARP-meth-NES
# [2] = test system: F-ZFPNARP-meth-NES (ZFPNARP fused to human DNMT3a catalytic domain residues 592-909) (synthetic construct); assay: cell_activity
Sequence,activity [1],"activity (% of clones with CpG methylation) ([2]; bisulfite sequencing around site in NARP cybrid cells, CpGs within site protected)","activity ([2]; wt cells, indistinguishable from background, scale: fold lower CpG methylation than on NARP site)"
GCCCGGGCC (double strand) [NARP T8993G mtDNA site],6,23,–
GCCCTGGCC (double strand) [wild-type mtDNA 8993 site],–,–,6
